Laboratory results reported in the supplement of paper PMC11316812.
± gives the standard deviation of the averaged measurements.

Key:
MCF7 = test: percentage of EdU-negative (G0-arrested) nuclei per well, 72 h; higher = more G0 arrest; conditions: reference: sequence is the full UniProt precursor, the tested protein was the secreted form or ectodomain
hTERT-HMEC = test: as above; conditions: reference: sequence is the full UniProt precursor, the tested protein was the secreted form or ectodomain
[1] = protein concentration 0.0284075 µM
[2] = protein concentration 0.284075 µM
[3] = protein concentration 0.0225 µM
[4] = protein concentration 0.00685714 µM
[5] = protein concentration 0.0685714 µM
[6] = protein concentration 0.0175 µM
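Further: secreted proteins added to cultured cells, EdU pulse at the end, nuclei found by Hoechst imaging, EdU status from nuclear versus surrounding ring intensity ratio, PBS as neutral control.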

Sequence | percentage of EdU-negative (MCF7; [3]) | percentage of EdU-negative (MCF7; protein concentration 0.225 µM) | percentage of EdU-negative (hTERT-HMEC; [3]) | percentage of EdU-negative (hTERT-HMEC; protein concentration 0.225 µM) | further results
MRVSGVLRLLALIFAIVTTWMFIRSYMSFSMKTIRLPRWLAASPTKEIQVKKYKCGLIKPCPANYFAFKICSGAANVVGPTMCFEDRMIMSPVKNNVGRGLNIALVNGTTGAVLGQKAFDMYSGDVMHLVKFLKEIPGGALVLVASYDDPGTKMNDESRKLFSDLGSSYAKQLGFRDSWVFIGAKDLRGKSPFEQFLKNSPDTNKYEGWPELLEMEGCMPPKPF [Q96BQ1] | – | – | – | – | percentage of EdU-negative (MCF7; [1]): 27.2 ± 0.94%; percentage of EdU-negative (MCF7; [2]): 26.6 ± 1.5%; percentage of EdU-negative (hTERT-HMEC; [1]): 5 ± 0.84%; percentage of EdU-negative (hTERT-HMEC; [2]): 6.345 ± 0.041%
MRWCLLLIWAQGLRQAPLASGMMTGTIETTGNISAEKGGSIILQCHLSSTTAQVTQVNWEQQDQLLAICNADLGWHISPSFKDRVAPGPGLGLTLQSLTVNDTGEYFCIYHTYPDGTYTGRIFLEVLESSVAEHGARFQIPLLGAMAATLVVICTAVIVVVALTRKKKALRIHSVEGDLRRKSAGQEEWSPSAPSPPGSCVQAEAAPAGLCGEQRGEDCAELHDYFNVLSYRSLGNCSFFTETG [Q495A1] | 23.6 ± 1.6% | 24.1 ± 1.1% | 4.33 ± 0.49% | 5.59 ± 0.47% | –
MRWILFIGALIGSSICGQEKFFGDQVLRINVRNGDEISKLSQLVNSNNLKLNFWKSPSSFNRPVDVLVPSVSLQAFKSFLRSQGLEYAVTIEDLQALLDNEDDEMQHNEGQERSSNNFNYGAYHSLEAIYHEMDNIAADFPDLARRVKIGHSFENRPMYVLKFSTGKGVRRPAVWLNAGIHSREWISQATAIWTARKIVSDYQRDPAITSILEKMDIFLLPVANPDGYVYTQTQNRLWRKTRSRNPGSSCIGADPNRNWNASFAGKGASDNPCSEVYHGPHANSEVEVKSVVDFIQKHGNFKGFIDLHSYSQLLMYPYGYSVKKAPDAEELDKVARLAAKALASVSGTEYQVGPTCTTVYPASGSSIDWAYDNGIKFAFTFELRDTGTYGFLLPANQIIPTAEETWLGLKTIMEHVRDNLY [Q9UI42] | 26.3 ± 1.7% | 29.1 ± 1.7% | 5.99 ± 0.71% | 5.12 ± 0.8% | –
MRWRTILLQYCFLLITCLLTALEAVPIDIDKTKVQNIHPVESAKIEPPDTGLYYDEYLKQVIDVLETDKHFREKLQKADIEEIKSGRLSKELDLVSHHVRTKLDELKRQEVGRLRMLIKAKLDSLQDIGMDHQALLKQFDHLNHLNPDKFESTDLDMLIKAATSDLEHYDKTRHEEFKKYEMMKEHERREYLKTLNEEKRKEEESKFEEMKKKHENHPKVNHPGSKDQLKEVWEETDGLDPNDFDPKTFFKLHDVNSDGFLDEQELEALFTKELEKVYDPKNEEDDMVEMEEERLRMREHVMNEVDTNKDRLVTLEEFLKATEKKEFLEPDSWETLDQQQFFTEEELKEYENIIALQENELKKKADELQKQKEELQRQHDQLEAQKLEYHQVIQQMEQKKLQQGIPPSGPAGELKFEPHI | 24 ± 0.28% | 26 ± 1.5% | 5.36 ± 0.7% | 5.32 ± 1.9% | –
MSAAWIPALGLGVCLLLLPGPAGSEGAAPIAITCFTRGLDIRKEKADVLCPGGCPLEEFSVYGNIVYASVSSICGAAVHRGVISNSGGPVRVYSLPGRENYSSVDANGIQSQMLSRWSASFTVTKGKSSTQEATGQAVSTAHPPTGKRLKKTPEKKTGNKDCKADIAFLIDGSFNIGQRRFNLQKNFVGKVALMLGIGTEGPHVGLVQASEHPKIEFYLKNFTSAKDVLFAIKEVGFRGGNSNTGKALKHTAQKFFTVDAGVRKGIPKVVVVFIDGWPSDDIEEAGIVAREFGVNVFIVSVAKPIPEELGMVQDVTFVDKAVCRNNGFFSYHMPNWFGTTKYVKPLVQKLCTHEQMMCSKTCYNSVNIAFLIDGSSSVGDSNFRLMLEFVSNIAKTFEISDIGAKIAAVQFTYDQRTEFSFTDYSTKENVLAVIRNIRYMSGGTATGDAISFTVRNVFGPIRESPNKNFLVIVTDGQSYDDVQGPAAAAHDAGITIFSVGVAWAPLDDLKDMASKPKESHAFFTREFTGLEPIVSDVIRGICRDFLESQQ | – | – | – | – | percentage of EdU-negative (MCF7; [4]): 23.1 ± 2.5%; percentage of EdU-negative (MCF7; [5]): 25.4 ± 0.26%; percentage of EdU-negative (hTERT-HMEC; [4]): 4.89 ± 0.28%; percentage of EdU-negative (hTERT-HMEC; [5]): 7.63 ± 0.47%
MSAFRLWPGLLIMLGSLCHRGSPCGLSTHVEIGHRALEFLQLHNGRVNYRELLLEHQDAYQAGIVFPDCFYPSICKGGKFHDVSESTHWTPFLNASVHYIRENYPLPWEKDTEKLVAFLFGITSHMAADVSWHSLGLEQGFLRTMGAIDFHGSYSEAHSAGDFGGDVLSQFEFNFNYLARRWYVPVKDLLGIYEKLYGRKVITENVIVDCSHIQFLEMYGEMLAVSKLYPTYSTKSPFLVEQFQEYFLGGLDDMAFWSTNIYHLTSFMLENGTSDCNLPENPLFIACGGQQNHTQGSKMQKNDFHRNLTTSLTESVDRNINYTERGVFFSVNSWTPDSMSFIYKALERNIRTMFIGGSQLSQKHVSSPLASYFLSFPYARLGWAMTSADLNQDGHGDLVVGAPGYSRPGHIHIGRVYLIYGNDLGLPPVDLDLDKEAHRILEGFQPSGRFGSALAVLDFNVDGVPDLAVGAPSVGSEQLTYKGAVYVYFGSKQGGMSSSPNITISCQDIYCNLGWTLLAADVNGDSEPDLVIGSPFAPGGGKQKGIVAAFYSGPSLSDKEKLNVEAANWTVRGEEDFSWFGYSLHGVTVDNRTLLLVGSPTWKNASRLGHLLHIRDEKKSLGRVYGYFPPNGQSWFTISGDKAMGKLGTSLSSGHVLMNGTLKQVLLVGAPTYDDVSKVAFLTVTLHQGGATRMYALTSDAQPLLLSTFSGDRRFSRFGGVLHLSDLDDDGLDEIIMAAPLRIADVTSGLIGGEDGRVYVYNGKETTLGDMTGKCKSWITPCPEEKAQYVLISPEASSRFGSSLITVRSKAKNQVVIAAGRSSLGARLSGALHVYSLGSD | – | – | – | – | percentage of EdU-negative (MCF7; [6]): 25.88 ± 0.089%; percentage of EdU-negative (MCF7; protein concentration 0.175 µM): 31.8 ± 1.3%; percentage of EdU-negative (hTERT-HMEC; [6]): 4.66 ± 0.8%; percentage of EdU-negative (hTERT-HMEC; protein concentration 0.175 µM): 7.38 ± 0.61%
